In the assay the target is T1, CXCR4 receptor (Homo sapiens, UniProt P61073).
T1 construct: incubation of THP-1 cells with SDF-1; endogenous in cells; host or cells: THP-1 cells
The assay is described as follows: [Ca2+]i mobilization in fura-2,AM loaded THP-1 cells (FIG. 5, Table 6). The class given is cell-based. Particulars: 1×10^6/ml. How it is done: Fura-2,AM loaded THP-1 cells (1×10^6/ml) were stimulated with SDF-1, Compound A or Compound K at the concentrations indicated. The values represent the mean ± one S.D. of n=3 experiments.
Fura-2,AM loaded THP-1 cells (1×10^6/ml) were stimulated with native SDF-1 and the SDF-1 peptide analogs at the concentration of native SDF-1 concentration that gave the maximum [Ca^2+]1 stimulation (1 μM). The values represent the mean ± one S.D. of n=3 experiments.
This example illustrates the efficacy of SDF-1 and SDF-1 peptide analogs in mediating intracellular calcium mobilization ([Ca^2+]i). To illustrate that the binding of SDF-1 and SDF-1 peptide analogs results in the agonistic induction of the CXCR4 receptor, [Ca^2+]i mobilization assays were conducted, the results of which are shown in FIG. 5. To obtain the data shown in FIG. 5, fura-2,AM loaded THP-1 cells (1×10^6/ml) were stimulated with Compound A/SDF-1, SDF-1(1-14)-(G)4-SDF-1(55-67) Lys20/Glu24-cyclic amide (SEQ ID NO:809) or Compound K/SDF-1(1-14)-(G)4-SDF-1(55-67)-Glu24/Lys28-cyclic amide (SEQ ID NO:803) at the concentrations indicated (the values represent the mean ± one S.D. of n=3 experiments). […]

Positions of bridges follow the written chain, without caps; N, C: chain ends.

The results in this text go back to patent US20050059584A1, “Novel chemokine mimetics synthesis and their use” (priority 2002, published 2005).

T1 sequence (P61073 whole entry): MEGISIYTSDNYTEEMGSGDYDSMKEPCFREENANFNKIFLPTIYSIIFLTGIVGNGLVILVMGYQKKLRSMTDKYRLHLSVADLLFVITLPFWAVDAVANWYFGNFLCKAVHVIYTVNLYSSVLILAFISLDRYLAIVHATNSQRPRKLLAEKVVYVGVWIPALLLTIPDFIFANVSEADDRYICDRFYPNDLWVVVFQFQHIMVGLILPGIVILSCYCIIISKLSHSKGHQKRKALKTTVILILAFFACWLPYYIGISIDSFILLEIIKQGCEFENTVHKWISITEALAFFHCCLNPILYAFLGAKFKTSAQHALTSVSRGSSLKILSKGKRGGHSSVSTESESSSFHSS

As a reminder, the EC50 is the concentration that produces a half-maximal response. A high value points to lower potency in that assay. “H2N-Lys-Pro-Val-Ser-Leu-Ser-Tyr-Arg-Cys-Pro-Cys-Arg-Phe-Phe-[Gly-Gly-Gly-Gly]-Leu-Lys-Trp-Ile-Gln-Glu-Tyr-Leu-Glu-Lys-Ala-Leu-Asn-NH2 (H-KPVSLSYRCPCRFFGGGGLKWIQEYLEKALN-NH2; lactam 20-24; cysteine pairing not given here) [Compound A]” showed an EC50 of 148 nM.
